B1: MATN2 (parent)
chain: TDDSYSCHCLKGFTLNPDKKTCRR

Variants of: B1
Assay: protein stability index of a GFP-peptide fusion (GPS, HEK-293T) (PSI 1-6); higher = more stable
Details: c terminus: a fixed tail appended
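Further: lentivirally expressed fusions sorted by FACS into six bins by GFP to DsRed ratio, PSI derived from sequencing read proportions per bin multiplied by bin number.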

Row | Variant | protein stability index
1 | TDDSYSCHCLKGFTLNPDEKTCRR | 2.3
2 | TDDSYSCHCLKGFTLNPDHKTCRR | 3.66
3 | TDDSYSCHCLKGFTLNPDDKTCRR | 2.37
4 | TDDSYSCHCLKGFTLNPDWKTCRR | 1.16
5 | TDDSYSCHCLKGFTLNPDMKTCRR | 2.17
6 | TDDSYSCHCLKGFTLNPDGKTCRR | 1.62
7 | TDDSYSCHCLKGFTLNPDIKTCRR | 2.01
8 | TDDSYSCHCLKGFTLNPDAKTCRR | 2.46
9 | TDDSYSCHCLKGFTLNPDTKTCRR | 2.06
10 | TDDSYSCHCLKGFTLNPDVKTCRR | 2.3
11 | TDDSYSCHCLKGFTLNPDFKTCRR | 1.61
12 | TDDSYSCHCLKGFTLNPDPKTCRR | 2.19
13 | TDDSYSCHCLKGFTLNPDCKTCRR | 4.92
14 | TDDSYSCHCLKGFTLNPDRKTCRR | 2.12
15 | TDDSYSCHCLKGFTLNPDLKTCRR | 2.21
16 | TDDSYSCHCLKGFTLNPDYKTCRR | 2.25
17 | TDDSYSCHCLKGFTLNPDQKTCRR | 2.41
18 | TDDSYSCHCLKGFTLNPDNKTCRR | 2.2
19 | TDDSYSCHCLKGFTLNPDSKTCRR | 2.18
20 | TDDSYSCHCLKGFTLMPDKKTCRR | 2.65
21 | TDDSYSCHCLKGFTLSPDKKTCRR | 2.24
22 | TDDSYSCHCLKGFTLGPDKKTCRR | 2.23
23 | TDDSYSCHCLKGFTLDPDKKTCRR | 2.17
24 | TDDSYSCHCLKGFTLLPDKKTCRR | 2.24

Row | Variant | protein stability index
25 | TDDSYSCHCLKGFTLPPDKKTCRR | 2.85
26 | TDDSYSCHCLKGFTLCPDKKTCRR | 2.97
27 | TDDSYSCHCLKGFTLKPDKKTCRR | 2.33
28 | TDDSYSCHCLKGFTLIPDKKTCRR | 2.89
29 | TDDSYSCHCLKGFTLVPDKKTCRR | 2.56
30 | TDDSYSCHCLKGFTLFPDKKTCRR | 1.8
31 | TDDSYSCHCLKGFTLWPDKKTCRR | 1.6
32 | TDDSYSCHCLKGFTLQPDKKTCRR | 1.56
33 | TDDSYSCHCLKGFTLHPDKKTCRR | 2.3
34 | TDDSYSCHCLKGFTLTPDKKTCRR | 1.91
35 | TDDSYSCHCLKGFTLAPDKKTCRR | 2.68
36 | TDDSYSCHCLKGFTLYPDKKTCRR | 2.4
37 | TDDSYSCHCLKGFTLRPDKKTCRR | 2.75
38 | TDDSYSCHCLKGFTLEPDKKTCRR | 2.06
39 | TDDSYSCHCLKGFTLNPDKKTWRR | 1.67
40 | TDDSYSCHCLKGFTLNPDKKTDRR | 2.69
41 | TDDSYSCHCLKGFTLNPDKKTMRR | 1.88
42 | TDDSYSCHCLKGFTLNPDKKTKRR | 3.37
43 | TDDSYSCHCLKGFTLNPDKKTERR | 2.02
44 | TDDSYSCHCLKGFTLNPDKKTTRR | 2.44
45 | TDDSYSCHCLKGFTLNPDKKTRRR | 2.86
46 | TDDSYSCHCLKGFTLNPDKKTNRR | 2.75
47 | TDDSYSCHCLKGFTLNPDKKTLRR | 2.93
48 | TDDSYSCHCLKGFTLNPDKKTPRR | 3

Row | Variant | protein stability index
49 | TDDSYSCHCLKGFTLNPDKKTYRR | 1.94
50 | TDDSYSCHCLKGFTLNPDKKTARR | 2
51 | TDDSYSCHCLKGFTLNPDKKTGRR | 2.27
52 | TDDSYSCHCLKGFTLNPDKKTHRR | 2.18
53 | TDDSYSCHCLKGFTLNPDKKTVRR | 3.13
54 | TDDSYSCHCLKGFTLNPDKKTSRR | 2.42
55 | TDDSYSCHCLKGFTLNPDKKTIRR | 2.09
56 | TDDSYSCHCLKGFTLNPDKKTFRR | 2.16
57 | TDDSYSCHCLKGFTLNPDKKTQRR | 2.27
58 | TDDSYSCHCLKGFTLNPSKKTCRR | 2.27
59 | TDDSYSCHCLKGFTLNPTKKTCRR | 2.24
60 | TDDSYSCHCLKGFTLNPVKKTCRR | 2.42
61 | TDDSYSCHCLKGFTLNPLKKTCRR | 2.23
62 | TDDSYSCHCLKGFTLNPQKKTCRR | 1.97
63 | TDDSYSCHCLKGFTLNPPKKTCRR | 2.61
64 | TDDSYSCHCLKGFTLNPNKKTCRR | 2.38
65 | TDDSYSCHCLKGFTLNPHKKTCRR | 2.83
66 | TDDSYSCHCLKGFTLNPGKKTCRR | 2.36
67 | TDDSYSCHCLKGFTLNPWKKTCRR | 2.17
68 | TDDSYSCHCLKGFTLNPFKKTCRR | 2.01
69 | TDDSYSCHCLKGFTLNPEKKTCRR | 1.77
70 | TDDSYSCHCLKGFTLNPKKKTCRR | 2.86
71 | TDDSYSCHCLKGFTLNPYKKTCRR | 1.95
72 | TDDSYSCHCLKGFTLNPRKKTCRR | 2.65

Row | Variant | protein stability index
73 | TDDSYSCHCLKGFTLNPMKKTCRR | 2.48
74 | TDDSYSCHCLKGFTLNPCKKTCRR | 2.57
75 | TDDSYSCHCLKGFTLNPIKKTCRR | 2.62
76 | TDDSYSCHCLKGFTLNPAKKTCRR | 2.11
77 | TDDSYSCHCLKGFTLNPDKKTCCR | 2.83
78 | TDDSYSCHCLKGFTLNPDKKTCAR | 2.41
79 | TDDSYSCHCLKGFELNPDKKTCRR | 2.23
80 | TDDSYSCHCLKGFDLNPDKKTCRR | 2.14
81 | TDDSYSCHCLKGFSLNPDKKTCRR | 2.13
82 | TDDSYSCHCLKGFQLNPDKKTCRR | 1.67
83 | TDDSYSCHCLKGFMLNPDKKTCRR | 1.64
84 | TDDSYSCHCLKGFLLNPDKKTCRR | 2.01
85 | TDDSYSCHCLKGFHLNPDKKTCRR | 2.36
86 | TDDSYSCHCLKGFILNPDKKTCRR | 2.02
87 | TDDSYSCHCLKGFWLNPDKKTCRR | 2.69
88 | TDDSYSCHCLKGFRLNPDKKTCRR | 2
89 | TDDSYSCHCLKGFYLNPDKKTCRR | 1.6
90 | TDDSYSCHCLKGFKLNPDKKTCRR | 2.16
91 | TDDSYSCHCLKGFPLNPDKKTCRR | 1.79
92 | TDDSYSCHCLKGFCLNPDKKTCRR | 2.31
93 | TDDSYSCHCLKGFVLNPDKKTCRR | 3.45
94 | TDDSYSCHCLKGFFLNPDKKTCRR | 1.32
95 | TDDSYSCHCLKGFALNPDKKTCRR | 2.69
96 | TDDSYSCHCLKGFNLNPDKKTCRR | 2.68

Row | Variant | protein stability index
97 | TDDSYSCHCLKGFGLNPDKKTCRR | 2.24
98 | TDDSYSCHCLKGFTLNPDKKHCRR | 2.62
99 | TDDSYSCHCLKGFTLNPDKKKCRR | 2.06
100 | TDDSYSCHCLKGFTLNPDKKRCRR | 2.34
101 | TDDSYSCHCLKGFTLNPDKKGCRR | 1.33
102 | TDDSYSCHCLKGFTLNPDKKYCRR | 2.27
103 | TDDSYSCHCLKGFTLNPDKKDCRR | 2.6
104 | TDDSYSCHCLKGFTLNPDKKMCRR | 2.57
105 | TDDSYSCHCLKGFTLNPDKKQCRR | 2.64
106 | TDDSYSCHCLKGFTLNPDKKFCRR | 1.57
107 | TDDSYSCHCLKGFTLNPDKKCCRR | 2.75
108 | TDDSYSCHCLKGFTLNPDKKACRR | 2.2
109 | TDDSYSCHCLKGFTLNPDKKNCRR | 2.32
110 | TDDSYSCHCLKGFTLNPDKKSCRR | 2.36
111 | TDDSYSCHCLKGFTLNPDKKLCRR | 2.15
112 | TDDSYSCHCLKGFTLNPDKKICRR | 2.4
113 | TDDSYSCHCLKGFTLNPDKKVCRR | 2.41
114 | TDDSYSCHCLKGFTLNPDKKPCRR | 2.36
115 | TDDSYSCHCLKGFTLNPDKKECRR | 2.89
116 | TDDSYSCHCLKGFTLNPDKKWCRR | 1.83
117 | TDDSYSCHCLKGFTLNPDKCTCRR | 4.55
118 | TDDSYSCHCLKGFTLNPDKATCRR | 2.68
119 | TDDSYSCHCLKGFTLNPDKQTCRR | 2.95
120 | TDDSYSCHCLKGFTLNPDKDTCRR | 2.29

Row | Variant | protein stability index
121 | TDDSYSCHCLKGFTLNPDKWTCRR | 1.48
122 | TDDSYSCHCLKGFTLNPDKHTCRR | 2.17
123 | TDDSYSCHCLKGFTLNPDKPTCRR | 1.93
124 | TDDSYSCHCLKGFTLNPDKFTCRR | 1.85
125 | TDDSYSCHCLKGFTLNPDKTTCRR | 1.6
126 | TDDSYSCHCLKGFTLNPDKYTCRR | 1.53
127 | TDDSYSCHCLKGFTLNPDKSTCRR | 2.33
128 | TDDSYSCHCLKGFTLNPDKGTCRR | 2.09
129 | TDDSYSCHCLKGFTLNPDKNTCRR | 2.04
130 | TDDSYSCHCLKGFTLNPDKVTCRR | 1.77
131 | TDDSYSCHCLKGFTLNPDKRTCRR | 2.03
132 | TDDSYSCHCLKGFTLNPDKLTCRR | 1.32
133 | TDDSYSCHCLKGFTLNPDKETCRR | 2.06
134 | TDDSYSCHCLKGFTLNPDKITCRR | 2.1
135 | TDDSYSCHCLKGFTLNPDKMTCRR | 1.78
136 | TDDSYSCHCLKGFTANPDKKTCRR | 2.45
137 | TDDSYSCHCLKGFTQNPDKKTCRR | 2.8
138 | TDDSYSCHCLKGFTYNPDKKTCRR | 2.45
139 | TDDSYSCHCLKGFTINPDKKTCRR | 2.12
140 | TDDSYSCHCLKGFTPNPDKKTCRR | 2.42
141 | TDDSYSCHCLKGFTMNPDKKTCRR | 2.38
142 | TDDSYSCHCLKGFTFNPDKKTCRR | 2.86
143 | TDDSYSCHCLKGFTVNPDKKTCRR | 2.55
144 | TDDSYSCHCLKGFTRNPDKKTCRR | 2.81

Row | Variant | protein stability index
145 | TDDSYSCHCLKGFTGNPDKKTCRR | 1.74
146 | TDDSYSCHCLKGFTDNPDKKTCRR | 2.14
147 | TDDSYSCHCLKGFTWNPDKKTCRR | 2.48
148 | TDDSYSCHCLKGFTNNPDKKTCRR | 2.03
149 | TDDSYSCHCLKGFTENPDKKTCRR | 2.58
150 | TDDSYSCHCLKGFTCNPDKKTCRR | 2.9
151 | TDDSYSCHCLKGFTKNPDKKTCRR | 2.64
152 | TDDSYSCHCLKGFTSNPDKKTCRR | 2.17
153 | TDDSYSCHCLKGFTTNPDKKTCRR | 2.02
154 | TDDSYSCHCLKGFTHNPDKKTCRR | 1.97
155 | TDDSYSCHCLKGFTLNYDKKTCRR | 2.26
156 | TDDSYSCHCLKGFTLNRDKKTCRR | 2.35
157 | TDDSYSCHCLKGFTLNMDKKTCRR | 2.71
158 | TDDSYSCHCLKGFTLNDDKKTCRR | 2.65
159 | TDDSYSCHCLKGFTLNWDKKTCRR | 1.65
160 | TDDSYSCHCLKGFTLNQDKKTCRR | 2.14
161 | TDDSYSCHCLKGFTLNIDKKTCRR | 2.01
162 | TDDSYSCHCLKGFTLNVDKKTCRR | 2.92
163 | TDDSYSCHCLKGFTLNEDKKTCRR | 2.77
164 | TDDSYSCHCLKGFTLNADKKTCRR | 2.25
165 | TDDSYSCHCLKGFTLNKDKKTCRR | 2.63
166 | TDDSYSCHCLKGFTLNHDKKTCRR | 2.42
167 | TDDSYSCHCLKGFTLNSDKKTCRR | 2.11
168 | TDDSYSCHCLKGFTLNNDKKTCRR | 2.28

Row | Variant | protein stability index
169 | TDDSYSCHCLKGFTLNTDKKTCRR | 2.5
170 | TDDSYSCHCLKGFTLNLDKKTCRR | 2.02
171 | TDDSYSCHCLKGFTLNFDKKTCRR | 2.3
172 | TDDSYSCHCLKGFTLNGDKKTCRR | 2.57
173 | TDDSYSCHCLKGFTLNCDKKTCRR | 3.48
174 | TDDSYSCHCLKGVTLNPDKKTCRR | 2.21
175 | TDDSYSCHCLKGRTLNPDKKTCRR | 2.14
176 | TDDSYSCHCLKGYTLNPDKKTCRR | 3.04
177 | TDDSYSCHCLKGGTLNPDKKTCRR | 2.88
178 | TDDSYSCHCLKGNTLNPDKKTCRR | 1.81
179 | TDDSYSCHCLKGKTLNPDKKTCRR | 2.55
180 | TDDSYSCHCLKGPTLNPDKKTCRR | 2.74
181 | TDDSYSCHCLKGSTLNPDKKTCRR | 2.21
182 | TDDSYSCHCLKGWTLNPDKKTCRR | 2.44
183 | TDDSYSCHCLKGMTLNPDKKTCRR | 2.71
184 | TDDSYSCHCLKGLTLNPDKKTCRR | 2.77
185 | TDDSYSCHCLKGHTLNPDKKTCRR | 1.98
186 | TDDSYSCHCLKGTTLNPDKKTCRR | 2.3
187 | TDDSYSCHCLKGQTLNPDKKTCRR | 2.02
188 | TDDSYSCHCLKGITLNPDKKTCRR | 2.05
